The record followed here is patent US20240016949A1 (SHANGHAI FUDAN ZHANGJIANG BIO PHARMACEUTICAL, published 2024).

The assay addresses T1, FcγRIIa (CD32a) (UniProt P12318 34-317, limits assumed).
T1 sequence (looked up): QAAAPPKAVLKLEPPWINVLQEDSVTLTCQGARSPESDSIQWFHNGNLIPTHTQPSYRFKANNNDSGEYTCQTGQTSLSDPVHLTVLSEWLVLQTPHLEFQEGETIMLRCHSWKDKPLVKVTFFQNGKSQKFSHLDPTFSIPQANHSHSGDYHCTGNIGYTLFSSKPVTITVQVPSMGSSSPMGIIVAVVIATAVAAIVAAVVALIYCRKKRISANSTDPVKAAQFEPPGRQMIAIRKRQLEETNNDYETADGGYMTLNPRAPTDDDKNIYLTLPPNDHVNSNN
As to the kind of experiment: cell-based or functional assay.

B1: antibody-drug conjugate FDA028-LE14 (antibody, human IgG1, kappa)
light: not shown
heavy: QVQLQQWGAGLLKPSETLSLTCAVYGGSFSGYYWSWIRQPPGKGLEWIGEINHSGSTNYNPSLKSRVTISVETSKNQFSLKLSSVTAADTAVYYCARDKWTWYFDLWGRGTLVTVSSASTKGPSVFPLAPSSKSTSGGTAALGCLVKDYFPEPVTVSWNSGALTSGVHTFPAVLQSSGLYSLSSVVTVPSSSLGTQTYICNVNHKPSNTKVDKKVEPKSCDKTHTCPPCPAPPVAGGPSVFLFPPKPKDTLMISRTPEVTCVVVDVSHEDPEVKFNWYVDGVEVHNAKTKPREEQYNSTYRVVSVLTVLHQDWLNGKEYKCKVSNKALPAPIEKTISKAKGQPREPQVYTLPPSREEMTKNQVSLTCLVKGFYPSDIAVEWESNGQPENNYKTTPPVLDSDGSFFLYSKLTVDKSRWQQGNVFSCSVMHEALHNHYTQKSLSLSPGK
modifications: LE14 linker-drug as thioether on cysteines of reduced interchain disulfides; DAR 7.63 for the whole antibody
Consider B1, for which the “IC50 value (nM), killing activity on HSC Cell” value is 334 nM and the “IC50 value (nM), killing activity on K562 Cell” value is 270 nM.

B2: antibody-drug conjugate FDA029-LE14 (antibody, human IgG1, kappa)
light: not shown
heavy: QVQLQQWGAGLLKPSETLSLTCAVYGGSFSGYYWSWIRQPPGKGLEWIGEINHSGSTNYNPSLKSRVTISVETSKNQFSLKLSSVTAADTAVYYCARDKWTWYFDLWGRGTLVTVSSASTKGPSVFPLAPSSKSTSGGTAALGCLVKDYFPEPVTVSWNSGALTSGVHTFPAVLQSSGLYSLSSVVTVPSSSLGTQTYICNVNHKPSNTKVDKKVEPKSCDKTHTCPPCPAPEFEGGPSVFLFPPKPKDTLMISRTPEVTCVVVDVSHEDPEVKFNWYVDGVEVHNAKTKPREEQYNSTYRVVSVLTVLHQDWLNGKEYKCKVSNKALPASIEKTISKAKGQPREPQVYTLPPSREEMTKNQVSLTCLVKGFYPSDIAVEWESNGQPENNYKTTPPVLDSDGSFFLYSKLTVDKSRWQQGNVFSCSVMHEALHNHYTQKSLSLSPGK
modifications: LE14 linker-drug as thioether on cysteines of reduced interchain disulfides; DAR 7.82 for the whole antibody
On to B2, for which the “IC50 value (nM), killing activity on HSC Cell” value turned out to be 363 nM and the “IC50 value (nM), killing activity on K562 Cell” value stood at 323 nM.
